# Assay results published in patent US20250000991A1 (Eli Lilly, published 2025).
# T1: human Nectin-4-eGFP on T24 cells (clone 3) (human, UniProt Q96NY8 32-510)
# T1 sequence: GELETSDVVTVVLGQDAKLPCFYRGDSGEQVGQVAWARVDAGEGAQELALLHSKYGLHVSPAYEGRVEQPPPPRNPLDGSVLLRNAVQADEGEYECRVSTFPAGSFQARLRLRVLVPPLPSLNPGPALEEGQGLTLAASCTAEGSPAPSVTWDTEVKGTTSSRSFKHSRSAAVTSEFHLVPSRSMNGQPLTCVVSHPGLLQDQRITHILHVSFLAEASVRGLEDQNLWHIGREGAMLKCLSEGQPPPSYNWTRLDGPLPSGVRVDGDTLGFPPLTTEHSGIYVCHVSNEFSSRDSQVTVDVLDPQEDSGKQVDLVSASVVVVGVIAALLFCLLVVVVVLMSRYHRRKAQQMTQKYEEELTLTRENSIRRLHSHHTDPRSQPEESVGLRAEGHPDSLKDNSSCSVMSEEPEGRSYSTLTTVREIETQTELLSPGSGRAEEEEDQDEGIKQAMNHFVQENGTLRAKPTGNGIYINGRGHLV
# T2: recombinant HIS-tagged cyno nectin-4 (Acro Biosystems Cat. No. NE4-C52H4) (cyno, UniProt A0A2K5WES1 32-349)
# T2 construct: Bought protein; HIS tag not described
# T2 sequence: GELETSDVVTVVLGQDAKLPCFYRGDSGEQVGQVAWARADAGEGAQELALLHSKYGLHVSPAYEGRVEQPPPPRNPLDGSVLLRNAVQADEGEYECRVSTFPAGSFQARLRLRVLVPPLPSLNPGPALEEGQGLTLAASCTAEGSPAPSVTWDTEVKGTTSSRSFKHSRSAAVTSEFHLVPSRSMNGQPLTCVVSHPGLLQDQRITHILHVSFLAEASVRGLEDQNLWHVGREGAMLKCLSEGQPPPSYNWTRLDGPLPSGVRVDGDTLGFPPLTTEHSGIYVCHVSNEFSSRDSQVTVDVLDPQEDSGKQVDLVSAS
# T3: recombinant HIS-tagged human nectin-4 (Acro Biosystems Cat. No. NE4-H52H3) (human, UniProt Q96NY8 32-349)
# T3 construct: Bought protein; not shown: HIS tag
# T3 sequence: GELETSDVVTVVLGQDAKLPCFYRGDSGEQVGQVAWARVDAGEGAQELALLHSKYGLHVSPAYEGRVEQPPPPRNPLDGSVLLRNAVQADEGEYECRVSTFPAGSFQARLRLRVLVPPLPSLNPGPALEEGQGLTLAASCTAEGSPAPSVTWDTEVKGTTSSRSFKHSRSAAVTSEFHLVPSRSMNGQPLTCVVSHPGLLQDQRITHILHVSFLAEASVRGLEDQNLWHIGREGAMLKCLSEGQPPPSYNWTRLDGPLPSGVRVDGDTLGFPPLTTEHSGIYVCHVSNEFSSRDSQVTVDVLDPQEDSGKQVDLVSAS
# T4: recombinant HIS-tagged rat nectin-4 (R&D Systems Cat. No. 9997-N4-050) (rat, UniProt D3ZET1 31-348)
# T4 construct: Bought protein; HIS tag not described
# T4 sequence: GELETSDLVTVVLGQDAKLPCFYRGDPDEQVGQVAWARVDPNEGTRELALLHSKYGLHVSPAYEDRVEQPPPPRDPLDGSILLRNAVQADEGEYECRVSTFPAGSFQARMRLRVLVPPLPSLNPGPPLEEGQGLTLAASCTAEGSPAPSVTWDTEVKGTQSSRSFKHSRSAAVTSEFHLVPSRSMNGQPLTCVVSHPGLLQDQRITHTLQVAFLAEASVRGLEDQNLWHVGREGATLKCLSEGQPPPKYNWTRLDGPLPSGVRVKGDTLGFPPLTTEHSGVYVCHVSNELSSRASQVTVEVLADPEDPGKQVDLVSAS
# T5: human nectin-4 on cells (human, UniProt Q96NY8 32-510)
# T5 sequence: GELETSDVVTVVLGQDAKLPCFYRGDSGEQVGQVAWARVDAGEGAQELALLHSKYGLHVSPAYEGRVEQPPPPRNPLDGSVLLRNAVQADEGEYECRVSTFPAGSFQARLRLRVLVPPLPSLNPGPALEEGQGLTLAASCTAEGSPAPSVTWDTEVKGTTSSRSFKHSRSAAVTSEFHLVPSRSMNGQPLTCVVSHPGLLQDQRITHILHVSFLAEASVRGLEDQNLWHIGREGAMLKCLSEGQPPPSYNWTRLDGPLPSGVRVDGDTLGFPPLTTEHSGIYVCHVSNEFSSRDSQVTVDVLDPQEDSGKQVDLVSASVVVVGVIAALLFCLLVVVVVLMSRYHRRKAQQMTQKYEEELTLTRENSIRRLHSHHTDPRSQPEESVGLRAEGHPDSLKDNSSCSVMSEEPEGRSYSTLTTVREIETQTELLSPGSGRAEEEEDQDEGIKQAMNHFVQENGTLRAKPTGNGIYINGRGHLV
# Key:
# [1] = target: T1, human Nectin-4-eGFP on T24 cells (clone …); experiment: cell-based or functional assay
# [2] = target: T2, recombinant HIS-tagged cyno nectin-4 …; experiment: SPR Biacore 8K+, ADC captured via anti-human Fc, nectin-4 analyte, 37 C;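 note: Nectin-4 injected over captured ADC at 0 to 600 nM for 2 min association, then 10 min dissociation, with a reference flow cell lacking ADC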
# [3] = target: T3, recombinant HIS-tagged human nectin-4 …; experiment: as above
# [4] = target: T4, recombinant HIS-tagged rat nectin-4 …; experiment: as above
# [5] = target: T5, human nectin-4 on cells; experiment: cell-based or functional assay
# [6] = target: T3, recombinant HIS-tagged human nectin-4 …; experiment: SPR Biacore 8K+, ADC captured via anti-human Fc, nectin-4 analyte, 37 C; replicate 2 of 2
# [7] = target: T3, recombinant HIS-tagged human nectin-4 …; experiment: SPR Biacore 8K+, ADC captured via anti-human Fc, nectin-4 analyte, 37 C; replicate 1 of 2
# [8] = target: T5, human nectin-4 on cells; experiment: flow cytometry, differentiated normal human epidermal keratinocytes (HEKα)
# [9] = target: T5, human nectin-4 on cells; experiment: flow cytometry, SUM190PT cells (high endogenous nectin-4)
# [10] = target: T5, human nectin-4 on cells; experiment: flow cytometry, NCI-H1781 cells (low endogenous nectin-4)
Binder,% activity (max GFP signal loss compared to enfortumab mAb (100%)) [1] [%],EC50 (nM) of nectin-4-eGFP signal loss [1] [nM],Kd [2] [nM],koff [2] [s⁻¹],kon [2] [M⁻¹ s⁻¹],Kd [3] [nM],koff [3] [s⁻¹],kon [3] [M⁻¹ s⁻¹],Kd [4] [nM],koff [4] [s⁻¹],kon [4] [M⁻¹ s⁻¹],"Cytotoxicity IC50, NCI H1781 cells [5] [nM]","Cytotoxicity IC50, T24 Nectin-4 clone 108 cells [5] [nM]",Kd [6] [nM],koff [6] [s⁻¹],kon [6] [M⁻¹ s⁻¹],Kd [7] [nM],koff [7] [s⁻¹],kon [7] [M⁻¹ s⁻¹],other results
"Ab3 ADC (Ab3 conjugated as in Formula XI, DAR of 8) (antibody, human IgG1, kappa, L234A L235A, V domains shown, camptothecin analog linker-payload of Formula XI on cysteine thiols after full reduction, DAR of 8 per antibody; positions not given, Antibody-drug conjugate of Ab3; also called Ab3 (ADC column)) VH: EVQLVESGGGLVKPGGSLRLSCAASGFNLNHYNMNWVRQAPGKGLEWVSSVSSGGGFRYYADSVRGRFTISRDNAKNSLYLQMNSLRAEDTAVYYCARGAVFHDAFDIWGQGTLVTVSS VL: DIQLTQSPSFLSASVGDRVTITCRASQDISSYLAWYQQKPGKAPKLLIYVASTLQSGVPSRFSGSGSGTEFTLTISSLQPEDFATYYCQQINSYPFTFGQGTKVEIKR",136,2.68,0.986,0.000426,432000,1.03,0.000437,424000,5.28,0.000903,171000,0.0553,0.0825,,,,,,,
"Ab5 ADC (Ab5 conjugated as in Formula XI, DAR of 8) (antibody, human IgG1, kappa, L234A L235A, V domains shown, camptothecin analog linker-payload of Formula XI on cysteine thiols after full reduction, DAR of 8 per antibody; positions not given, Antibody-drug conjugate of Ab5; also called Ab5 (ADC column)) VH: QVQLVQSGAEVKKPGASVKVSCKASGYTFTSYYVHWVRQAPGQGLEWMGIINPSIISTSYAQKFQARVTMTRDTSTSTVYMELSSLRSEDTAVYYCARGLNFDAFDIWGQGTLVTVSS VL: DIQLTQSPSFLSASVGDRVTITCRASQGISSYLAWYQQKPGKAPKLLIYAASTLQSGVPSRFSGSGSGTEFTLTISSLQPEDFATYYCQQLNNYPFTFGQGTKVEIKR",112,2.8,3.1,0.0033,1.06e+06,3.94,0.00346,878000,31.3,0.0199,636000,0.0657,0.0994,,,,,,,
"Ab8 ADC (Ab8 conjugated as in Formula XI, DAR of 8) (antibody, human IgG1, lambda, L234A L235A, V domains shown, camptothecin analog linker-payload of Formula XI on cysteine thiols after full reduction, DAR of 8 per antibody; positions not given, Antibody-drug conjugate of Ab8; also called Ab8 (ADC column)) VH: QVQLVQSGAEVKKPGASVKVSCKASGYTFTSYYIHWVRQAPGQGLEWMGIINPISGRTSSAQKFQGRVTMTRDTSTSTVYMELSSLRSEDTAVYYCAKEGVGGELLRAFDIWGQGTLVTVSS VL: QSVLTQPPSVSEAPRQRVTISCSGSSSNIGNNAVNWYQQLPGKAPKLLIYYDDLLPSGVSDRFSGSKSGTSASLAISGLQSEDEADYYCAAWDDSLNGFVFGGGTKLTVLG",125,2.48,42.1,0.0524,1.25e+06,48.7,0.0338,694000,34.4,0.0165,482000,0.0572,0.088,,,,,,,
"Ab7 ADC (Ab7 conjugated as in Formula XI, DAR of 8) (antibody, human IgG1, lambda, L234A L235A, V domains shown, camptothecin analog linker-payload of Formula XI on cysteine thiols after full reduction, DAR of 8 per antibody; positions not given, Antibody-drug conjugate of Ab7; also called Ab7 (ADC column)) VH: QVQLVQSGAEVKKPGASVKVSCKASGYTFTNYYMHWVRQAPGQGLEWMGIINPSSGSASYAQKFQGRVTMTRDTSTSTVYMELSSLRSEDTAVYYCAREGVGRDILQAFDIWGQGTLVTVSS VL: QSVLTQPPSVSEAPRQRVTISCSGSSSNIGNNAVNWYQQLPGKAPKLLIYYDDLLPSGVSDRFSGSKSGTSASLAISGLQSEDEADYYCAAWDDSLNGHVFGGGTKLTVLG",126,2.61,39.2,0.0464,1.18e+06,,,,73.1,0.0296,404000,0.0543,0.0801,37.6,0.0212,564000,41.2,0.0243,591000,
"Ab1a ADC (Ab1a conjugated as in Formula XI, DAR of 8) (antibody, human IgG1, kappa, L234A L235A, V domains shown, camptothecin analog linker-payload of Formula XI on cysteine thiols after full reduction, DAR of 8 per antibody; positions not given, Antibody-drug conjugate of Ab1a; also called Ab1a (ADC column)) VH: QVQLVQSGAQVKKPGASVKVSCKASGYTFTGYYIHWVRQAPGQGLEWMGWINPNSGGTNYAQKFQGRVTMTRDTSISTAYMELSRLRSDDTAVYFCAREDWDFDYWGQGTLVTVSS VL: EIVLTQSPGTLSLSPGERATLSCRTSQSVSSSYLAWYQQKPGQAPRLLIYGASNRATDIPDRFSGSGSGTDFTLTINRLEPEDFAVYYCQQYGSSPITFGQGTRLEIKR",150,2.3,83.9,0.026,310000,,,,180,0.0453,252000,0.0981,0.0729,72.5,0.0308,424000,142,0.0402,283000,
"enfortumab (antibody, V domains shown) VH: EVQLVESGGGLVQPGGSLRLSCAASGFTFSSYNMNWVRQAPGKGLEWVSYISSSSSTIYYADSVKGRFTISRDNAKNSLSLQMNSLRDEDTAVYYCARAYYYGMDVWGQGTTVTVSS VL: DIQMTQSPSSVSASVGDRVTITCRASQGISGWLAWYQQKPGKAPKFLIYAASTLQSGVPSRFSGSGSGTDFTLTISSLQPEDFATYYCQQANSFPPTFGGGTKVEIKR",97,2.13,,,,,,,,,,,,,,,,,,EC50 [8]: 0.06 nM; % of enfortumab (Average Max MFI) [9]: 100%; Average Max MFI [9]: 1.1e+06 MFI; EC50 [9]: 0.11 nM; % of enfortumab (Average Max MFI) [10]: 100%; Average Max MFI [10]: 91000 MFI; EC50 [10]: 0.05 nM
